Assay results reported in publication PMC4794606 (Molecules and Cells, 2016).

Key:
[1] = target: full length human extracellular superoxide dismutase (residues 1-240), (His)6-FLAG-PreScission site fusion (human) (UniProt P08294); test: SEC
SEC = target: the molecule itself; test: SEC

stoichiometry N [1]	Molecule	stoichiometry N (SEC)
8	full length human extracellular superoxide dismutase (residues 1-240), (His)6-FLAG-PreScission site fusion (from UniProt P08294 19-240) (enzyme)	–
–	truncated/mature human extracellular superoxide dismutase (residues 19-240), (His)6-FLAG-PreScission site fusion (enzyme, UniProt P08294 19-240, looked up, N-glycosylated at Asn107) WTGEDSAEPNSDSAEWIRDMYAKVTEIWQEVMQRRDDDGALHAACQVQPSATLDAAQPRVTGVVLFRQLAPRAKLDAFFALEGFPTEPNSSSRAIHVHQFGDLSQGCESTGPHYNPLAVPHPQHPGDFGNFAVRDGSLWRYRAGLAASLAGPHSIVGRAVVVHAGEDDLGRGGNQASVENGNAGRRLACCVVGVCGPGLWERQAREHSERKKRRRESECKAA	8
